Data: US20220090139A1
Like-named read-outs stand apart in the source and are kept apart here.

Experiments:
[1] = molecular target: 10-amber 13-amber hoc-del soc-del T4 heads (bacteriophage T4) (UniProt P04535)
[2] = molecular target: 10-amber 13-amber hoc-del soc-del T4 heads (bacteriophage T4) (UniProt P04535); test: co-display with Cas9-gRNA RNP on the same T4 head
[3] = molecular target: 10-amber 13-amber hoc-del soc-del T4 heads (bacteriophage T4) (UniProt P04535); test: display titration on T4 heads, SDS-PAGE (FIG. 21)
[4] = molecular target: 10-amber 13-amber hoc-del soc-del T4 heads (bacteriophage T4) (UniProt P04535); test: display on T4 heads, copies per capsid compared
[5] = molecular target: 10-amber 13-amber hoc-del soc-del T4 heads (bacteriophage T4) (UniProt P04535); test: in vitro display on T4 heads, pelleting, SDS-PAGE densitometry against gp23* (930 copies)
[6] = molecular target: 10-amber 13-amber hoc-del soc-del T4 heads (bacteriophage T4) (UniProt P04535); test: display titration on T4 heads, SDS-PAGE (FIG. 20)
[7] = molecular target: 10-amber 13-amber hoc-del soc-del T4 heads (bacteriophage T4) (UniProt P04535); test: Soc-TAT displayed on T4(Luci) heads used for transduction (FIG. 28)
[8] = molecular target: 10-amber 13-amber hoc-del soc-del T4 heads (bacteriophage T4) (UniProt P04535); test: display of RNP on T4 heads through Soc
[9] = molecular target: 10-amber 13-amber hoc-del soc-del T4 heads (bacteriophage T4) (UniProt P04535); test: co-display with Cre-Hoc on the same T4 head

| Substance | Copies/capsid (copies per capsid) [1] | other results |
| --- | --- | --- |
| Cre-Soc (enzyme) | 630 | – |
| NLS-Cas9-Soc (from UniProt Q99ZW2 1-1368) (enzyme) | 550 | – |
| Cre-Hoc (enzyme) | 95 | copies per capsid (molecules per AV) [2]: 50; ratio of protein molecules to binding sites at saturation (molecules per binding site) [3]: 15 to 20 |
| Soc-RGD (from UniProt P03715 1-80) | 710 | fold copy number against RGD-Hoc [4]: 8.3 fold |
| Cpf1-Soc (enzyme) | – | Copies/capsid (copies per capsid) [5]: 450 |
| β-Gal-Soc (from UniProt P00722 1-1024; P03715 1-80) (enzyme) | 320 | ratio of protein molecules to binding sites at saturation (molecules per binding site) [6]: 15 to 20 |
| GFP-Soc (from UniProt P03715 1-80) | 660 | – |
| Soc-TAT (from UniProt P03715 1-80) | 750 | copies per capsid (copies per capsid) [7]: 520 |
| RGD-Hoc (from UniProt P18056 1-376) | 85 | – |
| Cas9-gRNA ribonucleoprotein (RNP) complex fused to Soc (from UniProt Q99ZW2 1-1368) | – | copies per capsid (copies per capsid) [8]: 280; copies per capsid (molecules per AV) [9]: 270 |
